Patent US20260265379A1 (IMCHECK THERAPEUTICS, published 2026)

How the values were obtained:
recombinant human BTN3A1 = biological target: T1, recombinant human BTN3A1 (human, UniProt O00481 30-254); test: SPR
T1 construct: Soluble form of the antigen used in SPR; also called rhBTN3A1; recombinant BTN3A1 protein
Method: (§1) SPR measures the interactions between two or more biomolecules. In capture kinetics analysis, an antibody is immobilized onto a gold-plated prism. The immobilized antibody is referred to as the ligand. An injection of antigen, referred to as the analyte, is carried out, often as a concentration series. The captured analytes are removed from the sensor chip surface using a regenerating agent, for example a low pH or high ionic strength solution. If investigating binding to several analytes, the antibodies are recaptured from solution before each analyte titration series. The instrument records the changes in refractive indexes (due to the accumulation or depletion of mass) in time and plots the results as sensorgrams.
(§2) Affinity measurements with respect to BTN3A, PD-1 and PD-L1 were performed by SPR technology, for instance in a Carterra LSA Platform instrument using a soluble form of the antigen as the analyte and the antibody as the ligand. Binding was also assessed through in cellulo binding assays, on cell lines (e.g. HEK293T cells) genetically modified to express the targets of interest or genetically modified to extinct target expression.
(§3) The 69 produced bsAbs and control mAbs were also evaluated for their binding affinity to recombinant proteins by SPR assays. The equilibrium dissociation constant (KD) was then calculated for constructs showing detectable binding.

recombinant human PD-1 = biological target: T2, recombinant human PD-1 (human, UniProt Q15116 25-167, limits assumed); test: SPR
T2 construct: Soluble antigen in SPR; also called rhPD-1
Method: as §1, §2, §3

[1] = biological target: T3, BTN3A1 at the surface of HEK-BTN3A1 cells (human, UniProt O00481 30-513); test: flow cytometry, HEK-BTN3A1 cells
T3 construct: HEK 293T BTN2A/BTN3A KO cells transduced with a BTN3A1 expressing vector

[2] = biological target: T4, PD-1 at the surface of Jurkat-PD-1 cells (human, UniProt Q15116 25-288); test: flow cytometry, Jurkat-PD-1 cells
T4 construct: whole, on cells
T4 sequence (Q15116 25-288): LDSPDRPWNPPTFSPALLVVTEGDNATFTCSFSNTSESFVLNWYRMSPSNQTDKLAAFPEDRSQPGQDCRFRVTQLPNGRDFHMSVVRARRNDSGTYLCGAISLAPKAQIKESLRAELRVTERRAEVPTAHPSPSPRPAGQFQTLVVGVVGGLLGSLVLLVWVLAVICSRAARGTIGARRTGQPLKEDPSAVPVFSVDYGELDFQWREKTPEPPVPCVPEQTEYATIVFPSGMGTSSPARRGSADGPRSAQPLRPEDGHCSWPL

T1 sequence (O00481 30-254 limits assumed): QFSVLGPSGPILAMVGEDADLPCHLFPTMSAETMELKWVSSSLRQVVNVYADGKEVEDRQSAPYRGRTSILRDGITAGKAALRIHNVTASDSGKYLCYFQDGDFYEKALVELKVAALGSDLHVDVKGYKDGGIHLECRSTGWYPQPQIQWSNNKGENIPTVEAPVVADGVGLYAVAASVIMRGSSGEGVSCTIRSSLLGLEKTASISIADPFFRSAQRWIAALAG
T2 sequence (Q15116 25-167 limits assumed): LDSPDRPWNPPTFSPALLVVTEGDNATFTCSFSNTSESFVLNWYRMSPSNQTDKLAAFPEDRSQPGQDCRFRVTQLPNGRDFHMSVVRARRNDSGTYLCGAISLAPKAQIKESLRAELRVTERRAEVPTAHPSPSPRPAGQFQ
T3 sequence (O00481 30-513 limits assumed): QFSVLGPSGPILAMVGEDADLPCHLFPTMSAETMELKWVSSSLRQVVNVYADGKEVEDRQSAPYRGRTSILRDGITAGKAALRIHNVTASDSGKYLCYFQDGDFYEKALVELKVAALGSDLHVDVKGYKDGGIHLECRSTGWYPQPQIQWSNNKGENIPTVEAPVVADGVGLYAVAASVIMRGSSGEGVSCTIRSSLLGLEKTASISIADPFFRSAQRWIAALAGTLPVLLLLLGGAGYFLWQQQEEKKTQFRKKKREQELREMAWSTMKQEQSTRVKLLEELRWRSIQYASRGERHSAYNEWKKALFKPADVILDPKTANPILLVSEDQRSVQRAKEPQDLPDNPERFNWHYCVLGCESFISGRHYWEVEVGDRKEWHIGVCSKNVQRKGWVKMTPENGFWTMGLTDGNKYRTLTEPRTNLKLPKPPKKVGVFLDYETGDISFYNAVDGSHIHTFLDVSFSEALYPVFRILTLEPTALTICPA

Binder | Kd (recombinant human BTN3A1) [nM] | Kd (recombinant human PD-1) [nM] | MFI at 10 nM [1] [MFI] | MFI at 100 nM [1] [MFI] | MFI at 10 nM [2] [MFI] | MFI at 100 nM [2] [MFI]
bsAb022 (bispecific antibody, IgG anti-BTN3A, scFv anti-PD-1) heavy: QVQLVQSGVEVKKPGASVKVSCKASGYTFTNYYMYWVRQAPGQGLEWMGGINPSNGGTNFNEKFKNRVTLTTDSSTTTAYMELKSLQFDDTAVYYCARRDYRFDMGFDYWGQGTTVTVSSGGGGSGGGGSGGGGSGGGGSEIVLTQSPATLSLSPGERATLSCRASKGVSTSGYSYLHWYQQKPGQAPRLLIYLASYLESGVPARFSGSGSGTDFTLTISSLEPEDFAVYYCQHSRDLPLTFGGGTKVEIKGGGGSGGGGSGGGGSGGGGSQVQLVQSGAEVKKPGASVKLSCKASGYIFTRYYMYWVKQRPGQGLEWIGEINPNNGGTKFNEKFKNRATLTVDKSISTAYMELSRLRSDDTAVYYCSREDDYDGTPFAMDYWGQGTLVTVSSASTKGPSVFPLAPSSKSTSGGTAALGCLVKDYFPEPVTVSWNSGALTSGVHTFPAVLQSSGLYSLSSVVTVPSSSLGTQTYICNVNHKPSNTKVDKRVEPKSCDKTHTCPPCPAPEFEGGPSVFLFPPKPKDTLMISRTPEVTCVVVDVSHEDPEVKFNWYVDGVEVHNAKTKPREEQYNSTYRVVSVLTVLHQDWLNGKEYKCKVSNKALPASIEKTISKAKGQPREPQVYTLPPSREEMTKNQVSLTCLVKGFYPSDIAVEWESNGQPENNYKTTPPVLDSDGSFFLYSKLTVDKSRWQQGNVFSCSVMHEALHNHYTQKSLSLSPG light: not shown | 0.163 | 0.928 | 224000 | 992000 | 216000 | 367000
bsAb034 (bispecific antibody, one Fab arm anti-PD-1, two scFv anti-BTN3A; not shown: IgG1 CH1-hinge-CH2-CH3; CH2-CH3 (Fc)) heavy (part 1 of 2): QVQLVQSGVEVKKPGASVKVSCKASGYTFTNYYMYWVRQAPGQGLEWMGGINPSNGGTNFNEKFKNRVTLTTDSSTTTAYMELKSLQFDDTAVYYCARRDYRFDMGFDYWGQGTTVTVSS heavy (part 2 of 2): GGGGSGGGGSGGGGSGGGGSQVQLVQSGAEVKKPGASVKLSCKASGYIFTRYYMYWVKQRPGQGLEWIGEINPNNGGTKFNEKFKNRATLTVDKSISTAYMELSRLRSDDTAVYYCSREDDYDGTPFAMDYWGQGTLVTVSSGGGGSGGGGSGGGGSGGGGSDIQMTQSPSSLSASVGDRVTITCHASQNINVWLSWYQQKPGKAPKLLIYKASNLHTGVPSRFTGSGSGTDFTFTISSLQPEDIATYYCQQGQTYPYTFGQGTKLEIK heavy: GGGGSGGGGSGGGGSGGGGSQVQLVQSGAEVKKPGASVKLSCKASGYIFTRYYMYWVKQRPGQGLEWIGEINPNNGGTKFNEKFKNRATLTVDKSISTAYMELSRLRSDDTAVYYCSREDDYDGTPFAMDYWGQGTLVTVSSGGGGSGGGGSGGGGSGGGGSDIQMTQSPSSLSASVGDRVTITCHASQNINVWLSWYQQKPGKAPKLLIYKASNLHTGVPSRFTGSGSGTDFTFTISSLQPEDIATYYCQQGQTYPYTFGQGTKLEIK light: EIVLTQSPATLSLSPGERATLSCRASKGVSTSGYSYLHWYQQKPGQAPRLLIYLASYLESGVPARFSGSGSGTDFTLTISSLEPEDFAVYYCQHSRDLPLTFGGGTKVEIKRTVAAPSVFIFPPSDEQLKSGTASVVCLLNNFYPREAKVQWKVDNALQSGNSQESVTEQDSKDSTYSLSSTLTLSKADYEKHKVYACEVTHQGLSSPVTKSFNRGEC | 0.167 | 1.9 | 706000 | 1.24e+06 | 210000 | 381000
bsAb039 (bispecific antibody, one Fab arm anti-PD-1, two scFv anti-BTN3A; not shown: IgG1 CH1-hinge-CH2-CH3; CH2-CH3 (Fc)) heavy (part 1 of 2): QVQLVQSGVEVKKPGASVKVSCKASGYTFTNYYMYWVRQAPGQGLEWMGGINPSNGGTNFNEKFKNRVTLTTDSSTTTAYMELKSLQFDDTAVYYCARRDYRFDMGFDYWGQGTTVTVSS heavy (part 2 of 2): GGGGSGGGGSGGGGSGGGGSDIQMTQSPSSLSASVGDRVTITCHASQNINVWLSWYQQKPGKAPKLLIYKASNLHTGVPSRFTGSGSGTDFTFTISSLQPEDIATYYCQQGQTYPYTFGQGTKLEIKGGGGSGGGGSGGGGSGGGGSQVQLVQSGAEVKKPGASVKLSCKASGYIFTRYYMYWVKQRPGQGLEWIGEINPNNGGTKFNEKFKNRATLTVDKSISTAYMELSRLRSDDTAVYYCSREDDYDGTPFAMDYWGQGTLVTVSS heavy: GGGGSGGGGSGGGGSGGGGSDIQMTQSPSSLSASVGDRVTITCHASQNINVWLSWYQQKPGKAPKLLIYKASNLHTGVPSRFTGSGSGTDFTFTISSLQPEDIATYYCQQGQTYPYTFGQGTKLEIKGGGGSGGGGSGGGGSGGGGSQVQLVQSGAEVKKPGASVKLSCKASGYIFTRYYMYWVKQRPGQGLEWIGEINPNNGGTKFNEKFKNRATLTVDKSISTAYMELSRLRSDDTAVYYCSREDDYDGTPFAMDYWGQGTLVTVSS light: EIVLTQSPATLSLSPGERATLSCRASKGVSTSGYSYLHWYQQKPGQAPRLLIYLASYLESGVPARFSGSGSGTDFTLTISSLEPEDFAVYYCQHSRDLPLTFGGGTKVEIKRTVAAPSVFIFPPSDEQLKSGTASVVCLLNNFYPREAKVQWKVDNALQSGNSQESVTEQDSKDSTYSLSSTLTLSKADYEKHKVYACEVTHQGLSSPVTKSFNRGEC | 0.187 | 2.1 | 1.14e+06 | 1.81e+06 | 294000 | 283000
bsAb037 (bispecific antibody, one Fab arm anti-PD-1, two scFv anti-BTN3A; not shown: IgG1 CH1-hinge-CH2-CH3; CH2-CH3 (Fc)) heavy 1: QVQLVQSGVEVKKPGASVKVSCKASGYTFTNYYMYWVRQAPGQGLEWMGGINPSNGGTNFNEKFKNRVTLTTDSSTTTAYMELKSLQFDDTAVYYCARRDYRFDMGFDYWGQGTTVTVSS heavy 2: DIQMTQSPSSLSASVGDRVTITCHASQNINVWLSWYQQKPGKAPKLLIYKASNLHTGVPSRFTGSGSGTDFTFTISSLQPEDIATYYCQQGQTYPYTFGQGTKLEIKGGGGSGGGGSGGGGSGGGGSQVQLVQSGAEVKKPGASVKLSCKASGYIFTRYYMYWVKQRPGQGLEWIGEINPNNGGTKFNEKFKNRATLTVDKSISTAYMELSRLRSDDTAVYYCSREDDYDGTPFAMDYWGQGTLVTVSSGGGGSGGGGSGGGGSGGGGS light: EIVLTQSPATLSLSPGERATLSCRASKGVSTSGYSYLHWYQQKPGQAPRLLIYLASYLESGVPARFSGSGSGTDFTLTISSLEPEDFAVYYCQHSRDLPLTFGGGTKVEIKRTVAAPSVFIFPPSDEQLKSGTASVVCLLNNFYPREAKVQWKVDNALQSGNSQESVTEQDSKDSTYSLSSTLTLSKADYEKHKVYACEVTHQGLSSPVTKSFNRGECGGGGSGGGGSGGGGSGGGGSQVQLVQSGAEVKKPGASVKLSCKASGYIFTRYYMYWVKQRPGQGLEWIGEINPNNGGTKFNEKFKNRATLTVDKSISTAYMELSRLRSDDTAVYYCSREDDYDGTPFAMDYWGQGTLVTVSSGGGGSGGGGSGGGGSGGGGSDIQMTQSPSSLSASVGDRVTITCHASQNINVWLSWYQQKPGKAPKLLIYKASNLHTGVPSRFTGSGSGTDFTFTISSLQPEDIATYYCQQGQTYPYTFGQGTKLEIK | 0.086 | 1.1 | 585000 | 1.25e+06 | 238000 | 270000
bsAb053 (bispecific antibody, IgG anti-PD-1, one scFv anti-BTN3A; not shown: IgG1 CH1-hinge-CH2-CH3) heavy (part 1 of 2): QVQLVQSGVEVKKPGASVKVSCKASGYTFTNYYMYWVRQAPGQGLEWMGGINPSNGGTNFNEKFKNRVTLTTDSSTTTAYMELKSLQFDDTAVYYCARRDYRFDMGFDYWGQGTTVTVSS heavy (part 2 of 2): GGGGSGGGGSGGGGSGGGGSQVQLVQSGAEVKKPGASVKLSCKASGYIFTRYYMYWVKQRPGQGLEWIGEINPNNGGTKFNEKFKNRATLTVDKSISTAYMELSRLRSDDTAVYYCSREDDYDGTPFAMDYWGQGTLVTVSSGGGGSGGGGSGGGGSGGGGSDIQMTQSPSSLSASVGDRVTITCHASQNINVWLSWYQQKPGKAPKLLIYKASNLHTGVPSRFTGSGSGTDFTFTISSLQPEDIATYYCQQGQTYPYTFGQGTKLEIK heavy: QVQLVQSGVEVKKPGASVKVSCKASGYTFTNYYMYWVRQAPGQGLEWMGGINPSNGGTNFNEKFKNRVTLTTDSSTTTAYMELKSLQFDDTAVYYCARRDYRFDMGFDYWGQGTTVTVSS light: EIVLTQSPATLSLSPGERATLSCRASKGVSTSGYSYLHWYQQKPGQAPRLLIYLASYLESGVPARFSGSGSGTDFTLTISSLEPEDFAVYYCQHSRDLPLTFGGGTKVEIKRTVAAPSVFIFPPSDEQLKSGTASVVCLLNNFYPREAKVQWKVDNALQSGNSQESVTEQDSKDSTYSLSSTLTLSKADYEKHKVYACEVTHQGLSSPVTKSFNRGEC | 0.393 | 0.984 | 494000 | 1.24e+06 | 187000 | 424000
